According to patent US20210188948A1:

Columns and labels:
Test in all cases: cell-based or functional assay
[1] = target: West Nile virus (WNV) reporter virus particles (RVPs) (West Nile virus)
[2] = target: DENV1 reporter virus particles (RVPs) (Dengue virus serotype 1)
[3] = target: Zika virus (ZIKV) reporter virus particles (RVPs) (Zika virus)
[4] = target: DENV3 reporter virus particles (RVPs) (Dengue virus serotype 3)
[5] = target: DENV4 reporter virus particles (RVPs) (Dengue virus serotype 4)

Substance | IC50 (neutralization) [1] [µg/mL] | percent neutralization [1] [%] | IC50 (neutralization) [2] [µg/mL] | percent neutralization [2] [%] | IC50 (neutralization) [3] [µg/mL] | percent neutralization [3] [%] | IC50 (neutralization) [4] [µg/mL] | percent neutralization [4] [%] | IC50 (neutralization) [5] [µg/mL] | percent neutralization [5] [%]
WNV-specific mAb CR4354 (antibody) | 0.007 | – | – | – | – | – | – | – | – | –
monoclonal antibody C10 | – | -195 | 0.352 | 52 | 0.038 | 99 | 0.753 | -95 | 0.038 | 98
monoclonal antibody E16 | – | 99 | – | -303 | – | -38 | – | -415 | – | -177
